T1: human DLL3-Fc (human)
T1 construct: also called soluble DLL3 protein
T1 chain: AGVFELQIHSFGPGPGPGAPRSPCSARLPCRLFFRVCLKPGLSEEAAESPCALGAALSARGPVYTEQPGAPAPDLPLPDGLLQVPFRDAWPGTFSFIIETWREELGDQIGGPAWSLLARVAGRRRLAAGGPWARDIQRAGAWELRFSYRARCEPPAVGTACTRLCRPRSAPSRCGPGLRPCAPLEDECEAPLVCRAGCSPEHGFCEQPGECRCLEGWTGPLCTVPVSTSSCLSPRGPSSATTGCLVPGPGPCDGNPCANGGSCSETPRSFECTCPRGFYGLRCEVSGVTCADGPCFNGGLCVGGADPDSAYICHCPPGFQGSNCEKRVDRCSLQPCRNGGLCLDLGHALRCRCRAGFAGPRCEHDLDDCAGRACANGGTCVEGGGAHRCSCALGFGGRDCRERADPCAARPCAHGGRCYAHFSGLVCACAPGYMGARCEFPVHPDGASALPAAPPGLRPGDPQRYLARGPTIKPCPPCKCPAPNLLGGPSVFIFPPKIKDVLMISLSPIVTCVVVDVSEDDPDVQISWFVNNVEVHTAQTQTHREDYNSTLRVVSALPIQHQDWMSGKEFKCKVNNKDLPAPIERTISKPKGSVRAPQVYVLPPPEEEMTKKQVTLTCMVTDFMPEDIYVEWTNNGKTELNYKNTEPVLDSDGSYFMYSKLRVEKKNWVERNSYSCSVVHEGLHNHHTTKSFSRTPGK

T2: human DLL3 expressed on cells (human DLL3/BaF3) (human, UniProt Q9NYJ7 27-618)
T2 construct: Full-length human DLL3 on the membrane of transformed Ba/F3 cells; The ADCC assays also used NCI-H1184 small-cell lung cancer cells that express DLL3; also called Delta-like 3; NM_016941
T2 sequence: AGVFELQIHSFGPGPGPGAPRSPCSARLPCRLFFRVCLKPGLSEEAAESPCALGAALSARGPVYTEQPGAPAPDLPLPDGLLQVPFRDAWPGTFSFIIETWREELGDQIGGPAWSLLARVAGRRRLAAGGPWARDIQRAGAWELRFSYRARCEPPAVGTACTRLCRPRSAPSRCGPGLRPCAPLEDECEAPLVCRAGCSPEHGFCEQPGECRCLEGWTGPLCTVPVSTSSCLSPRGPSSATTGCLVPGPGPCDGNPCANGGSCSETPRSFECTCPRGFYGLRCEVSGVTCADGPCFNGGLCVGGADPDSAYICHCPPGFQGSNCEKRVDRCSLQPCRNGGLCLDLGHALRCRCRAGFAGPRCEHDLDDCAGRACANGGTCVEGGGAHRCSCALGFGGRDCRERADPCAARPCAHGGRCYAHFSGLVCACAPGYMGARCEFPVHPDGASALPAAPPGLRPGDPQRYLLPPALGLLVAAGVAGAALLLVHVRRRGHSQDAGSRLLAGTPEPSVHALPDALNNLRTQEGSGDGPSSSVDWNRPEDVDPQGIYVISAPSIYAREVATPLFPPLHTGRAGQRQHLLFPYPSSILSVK


Tests used:
human DLL3-Fc = target: T1, human DLL3-Fc; test: ELISA, immobilized human DLL3-Fc
Method: The competition of a chimeric antibody and a mouse antibody for binding to the antigen molecule was analyzed by ELISA (FIG. 8 (b)). Human DLL3-Fc was added at 10 ng/well to a Nunc immunoplate and immobilized thereon. A mixture (final concentration: 50 ng/ml) of the chimeric antibody and the appropriately diluted mouse antibody was added to the DLL3-Fc protein-immobilized plate. The plate was incubated at room temperature for 1 hour and then washed. Alkaline phosphatase-labeled anti-human antibodies were added thereto and incubated. After the incubation, Sigma 104 was added thereto, and the absorbance was measured. The binding of the chimeric antibody to the antigen molecule competed with that of the original mouse monoclonal antibody thereto.

[1] = target: T2, human DLL3 expressed on cells (human …); test: flow cytometry on human DLL3/BaF3 cells, antibody 5 µg/ml
Method: The binding of each monoclonal antibody to human DLL3 expressed on a cell membrane and the behavior of a human DLL3-monoclonal antibody complex on the cell membrane were analyzed by flow cytometry. Human DLL3/BaF3 cells were suspended in a FACS buffer (PBS containing 1% fetal bovine serum and 0.05% sodium azide). The cell suspension of 1×10⁶ cells/ml was reacted with the monoclonal antibody (final concentration: 5 μg/ml) at 4° C. for 30 minutes. After centrifugation and supernatant removal, the cells were washed once with a FACS buffer. FITC-labeled anti-mouse IgG (H+L) antibodies (Beckman Coulter, Inc.) were added thereto and incubated at 4° C. for 30 minutes. Unreacted FITC antibodies were removed by centrifugation. Then, the cells were resuspended and analyzed using a flow cytometer FACSCalibur (Becton, Dickinson and Company). For the purpose of analyzing the movement or disappearance of the DLL3-antibody complex from the cell membrane, human DLL3/BaF3 cells were suspended in an RPMI1640 culture medium containing 10% fetal bovine serum (FBS) and mouse IL3. The cell suspension of 1×10⁶ cells/ml was mixed with the monoclonal antibody (final concentration: 5 μg/ml) and reacted at 37° C. for 1 hour or 4 hours in a CO2 incubator. After the reaction, the amount of the antibody bound onto the cell membrane was analyzed by flow cytometry in the same way as above. The geometric mean of fluorescence intensity values (X Geo Mean) in a cell histogram plot was determined using the analytical software CELLQuest Pro included in FACSCalibur. All the isolated anti-DLL3 monoclonal antibodies bound to DLL3 on the cells (FIG. 3(a)). The reaction of the antibody with the cells at 4° C. inhibits membrane fluidity such as the cellular uptake of the DLL3-antibody complex from the cell membrane. The reaction of the antibody with the cells at 37° C. may cause the cellular uptake of the DLL3-antibody complex and shading (release from the cell membrane) resulting from protease digestion or the like. The amount of each monoclonal antibody bound onto the cell membrane as a result of incubation at 37° C. for 1 hour or 4 hours is shown in FIG. 3(b) as a relative value compared with that at 4° C. As a result of incubation at 37° C., the amount of the antibody DL303, DL304, DL305, DL308, DL309, or MAB4315 on the surface of the cell membrane was decreased.

| Binder | binding result (human DLL3-Fc) | binding result [1] |
| --- | --- | --- |
| DL301 mouse monoclonal antibody (antibody, mouse IgG1, kappa, also called DL301 mouse antibody) heavy: QVQLQQSGADLVRPGTSVKVSCKASGYAFTNYLIEWIKQRPGQGLEWIGVMNPGSGGTHYSEKFRGKATLTADKSSSTAYMQLISLTSDDSAVYFCARSDYDYVTYAMDYWGQGTSVTVSSAKTTPPSVYPLAPGSAAQTNSMVTLGCLVKGYFPEPVTVTWNSGSLSSGVHTFPAVLQSDLYTLSSSVTVPSSTWPSETVTCNVAHPASSTKVDKKIVPRDCGCKPCICTVPEVSSVFIFPPKPKDVLTITLTPKVTCVVVDISKDDPEVQFSWFVDDVEVHTAQTQPREEQFNSTFRSVSELPIMHQDWLNGKEFKCRVNSAAFPAPIEKTISKTKGRPKAPQVYTIPPPKEQMAKDKVSLTCMITDFFPEDITVEWQWNGQPAENYKNTQPIMNTNGSYFVYSKLNVQKSNWEAGNTFTCSVLHEGLHNHHTEKSLSHSPGK light: DIKMTQSPSSMYASLGERVTITCKASQDINSYLIWFQQKPGKSPKTLIYRTNRLVDGVPSRFSGSGSGQDYSLTISSLEYGDMGIYYCLQYDEFPFTFGSGTKLEIKRADAAPTVSIFPPSSEQLTSGGASVVCFLNNFYPKDINVKWKIDGSERQNGVLNSWTDQDSKDSTYSMSSTLTLTKDEYERHNSYTCEATHKTSTSPIVKSFNRNEC | binds | binds |
| DL312 mouse monoclonal antibody (antibody, mouse IgG1, kappa, also called D312; DL312 mouse antibody) heavy: EVKLVESGGGLVQPGGSLSLSCAASGFTFTDYYMNWVRQPPGKALEWLALIRNKANGYTTEYNASVKGRFTISRDNSQNILYLQMNALRAEDSATYYCARDSDGYYEYYFDYWGQGTTLTVSSAKTTPPSVYPLAPGSAAQTNSMVTLGCLVKGYFPEPVTVTWNSGSLSSGVHTFPAVLQSDLYTLSSSVTVPSSTWPSETVTCNVAHPASSTKVDKKIVPRDCGCKPCICTVPEVSSVFIFPPKPKDVLTITLTPKVTCVVVDISKDDPEVQFSWFVDDVEVHTAQTQPREEQFNSTFRSVSELPIMHQDWLNGKEFKCRVNSAAFPAPIEKTISKTKGRPKAPQVYTIPPPKEQMAKDKVSLTCMITDFFPEDITVEWQWNGQPAENYKNTQPIMNTNGSYFVYSKLNVQKSNWEAGNTFTCSVLHEGLHNHHTEKSLSHSPGK light: DIQMTQSPSSLSASLGERVSLTCRASQEISDYLSWLQQKPDGTIKRLIFAASTLDSGVPKRFSGSRSGSDFSLSISSLESEDFADYYCLQYASYPYTFGSGTKLEIKRADAAPTVSIFPPSSEQLTSGGASVVCFLNNFYPKDINVKWKIDGSERQNGVLNSWTDQDSKDSTYSMSSTLTLTKDEYERHNSYTCEATHKTSTSPIVKSFNRNEC | binds | binds |
| DL306 mouse monoclonal antibody (antibody, mouse IgG1, kappa, also called DL306 mouse antibody) heavy: EVQLQQSGPELVKPGASVKMSCRASGYTFTDYYMKWVKQSHGKSLEWIGDINPNNGDTFYNQKFKGKATLTIDKSSSTAYMQLNSLTSDDSAVYYCARDGNYAYFDYWGQGTTLTVSSAKTTPPSVYPLAPGSAAQTNSMVTLGCLVKGYFPEPVTVTWNSGSLSSGVHTFPAVLQSDLYTLSSSVTVPSSTWPSETVTCNVAHPASSTKVDKKIVPRDCGCKPCICTVPEVSSVFIFPPKPKDVLTITLTPKVTCVVVDISKDDPEVQFSWFVDDVEVHTAQTQPREEQFNSTFRSVSELPIMHQDWLNGKEFKCRVNSAAFPAPIEKTISKTKGRPKAPQVYTIPPPKEQMAKDKVSLTCMITDFFPEDITVEWQWNGQPAENYKNTQPIMNTNGSYFVYSKLNVQKSNWEAGNTFTCSVLHEGLHNHHTEKSLSHSPGK light: DIVLTQSPASLAVSLGQRATISCRASKSVSTSGYSYMHWYQQKPGQPPKLLIFLASNLESGVPARFSGSGSGTDFTLNIHPVEEEDAATYYCQHSRHLPWTFGGGTKLEIKRADAAPTVSIFPPSSEQLTSGGASVVCFLNNFYPKDINVKWKIDGSERQNGVLNSWTDQDSKDSTYSMSSTLTLTKDEYERHNSYTCEATHKTSTSPIVKSFNRNEC | binds | binds |
| DL309 mouse monoclonal antibody (antibody, mouse IgG1, kappa, also called DL309 mouse antibody) heavy: QVQLQQSGGDLMKPGASVKISCKAAGYTFSNYYIEWVKQRPGHGLEWIGEILPGSGSTTYNEKFKGKASFTADTSSNTAYMQLSSLTSEDSAVYYCARWGAREPGFPYWGQGTLVTVSAAKTTPPSVYPLAPGSAAQTNSMVTLGCLVKGYFPEPVTVTWNSGSLSSGVHTFPAVLQSDLYTLSSSVTVPSSTWPSETVTCNVAHPASSTKVDKKIVPRDCGCKPCICTVPEVSSVFIFPPKPKDVLTITLTPKVTCVVVDISKDDPEVQFSWFVDDVEVHTAQTQPREEQFNSTFRSVSELPIMHQDWLNGKEFKCRVNSAAFPAPIEKTISKTKGRPKAPQVYTIPPPKEQMAKDKVSLTCMITDFFPEDITVEWQWNGQPAENYKNTQPIMNTNGSYFVYSKLNVQKSNWEAGNTFTCSVLHEGLHNHHTEKSLSHSPGK light: DIVMTQSQKFMSTSVGDRVSVTCKASQNVGTNVAWYQQKPGQSPKALIYSASYRYSGVPDRFTGSGSGTDFTLTISNVQSEDLAEYFCQQYNNYPLTFGAGTKLELKRADAAPTVSIFPPSSEQLTSGGASVVCFLNNFYPKDINVKWKIDGSERQNGVLNSWTDQDSKDSTYSMSSTLTLTKDEYERHNSYTCEATHKTSTSPIVKSFNRNEC | binds | binds |
